We go through one molecule from patent US20260132208A1 (DOMAIN THERAPEUTICS, published 2026).

One experiment has as its target T1, pwt1 (none (unmodified peptide)).
T1 construct: also called unmodified CCR8 N-terminal peptide
As to the kind of experiment: ELISA on coated peptide [cont.]. Put shortly:
(§1)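 Coat: peptide 500 ng/ml, carbonate/bicarbonate buffer. mAb 1 μg/mL, then 1/10 dilution; 90 min RT; wash. TMB 15 min; OD read = reactivity.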
For orientation: In an ELISA, binding on a coated surface is turned into a signal by an enzyme label.

The target of the next experiment is T2, pm2 (sulfated tyrosine(s) among Y15, Y16, Y17; which ones is not told (the underlining of Table 1 is lost in the text)).
T2 construct: also called sulfated CCR8 N-terminal peptide pm2
As to the kind of experiment: ELISA on coated peptide [cont.]. Put shortly:
as §1

T2 sequence (peptide, as listed by the source): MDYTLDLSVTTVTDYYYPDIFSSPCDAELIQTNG
T1 sequence (peptide, as listed by the source): as above

B1: anti-CCR8 mAb 1-20 (antibody, human IgG1, kappa)
heavy: not shown
light: DIVMTQAAPSLSVTPGESASISCTSSKSLLHSNGNTYLYWFLQKPGQSPQLLIYRMSNLASGVPDRFSGSGSGTAFTLKISRVEAEDVGVYYCMQHREYPFTFGSGTKLEIKRTVAAPSVFIFPPSDEQLKSGTASVVCLLNNFYPREAKVQWKVDNALQSGNSQESVTEQDSKDSTYSLSSTLTLSKADYEKHKVYACEVTHQGLSSPVTKSFNRGEC
notes: Humanized mAb, human IgG1 / kappa
Regarding B1, the binding result in the experiment with pwt1 and with pm2 was “binds” each time.
